We go through 2 molecules from article PMC5062973 (Nucleic Acids Research, 2016).

This assay concerns the target T1, M. jannaschii Nop5 (amino acids 1-367) (M. jannaschii, UniProt Q58105 1-367).
T1 sequence (looked up): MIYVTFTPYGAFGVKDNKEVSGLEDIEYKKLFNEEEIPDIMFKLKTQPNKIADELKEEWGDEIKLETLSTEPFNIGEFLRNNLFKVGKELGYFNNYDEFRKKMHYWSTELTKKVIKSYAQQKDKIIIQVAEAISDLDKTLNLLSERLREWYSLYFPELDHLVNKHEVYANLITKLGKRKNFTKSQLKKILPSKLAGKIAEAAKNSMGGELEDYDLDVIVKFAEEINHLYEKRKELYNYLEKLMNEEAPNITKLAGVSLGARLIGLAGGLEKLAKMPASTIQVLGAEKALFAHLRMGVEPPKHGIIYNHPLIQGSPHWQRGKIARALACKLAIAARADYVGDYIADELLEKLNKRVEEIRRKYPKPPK
Description: SEC.

B1: M. jannaschii fibrillarin with a N-terminal FLAG-tag (enzyme, UniProt Q58108 1-230, looked up)
chain: MEDIKIKEIFENIYEVDLGDGLKRIATKSIVKGKKVYDEKIIKIGDEEYRIWNPNKSKLAAAIIKGLKVMPIKRDSKILYLGASAGTTPSHVADIADKGIVYAIEYAPRIMRELLDACAERENIIPILGDANKPQEYANIVEKVDVIYEDVAQPNQAEILIKNAKWFLKKGGYGMIAIKARSIDVTKDPKEIFKEQKEILEAGGFKIVDEVDIEPFEKDHVMFVGIWEGK
B1: the binding result is “binds”.

B2: M. jannaschii L7Ae (natural protein)
chain: not shown
With B2, the binding result is recorded as “binds”.
